The results in this text go back to article PMC9067507, “F/YGG-motif is an intrinsically disordered nucleic-acid binding motif”.

Holding throughout (test): MST; 10 mM MgCl2; MST: 20 mM HEPES pH 7.5, 10 mM MgCl2, 0.05% Tween-20; 420 nM labelled U30 with protein titrated, or labelled peptide with RNA titrated; temperature not stated
One data set deals with T1, hnRNPA2 LCD deltaNAID1 (human, UniProt P22626 200-353, del239-306).
T1 sequence: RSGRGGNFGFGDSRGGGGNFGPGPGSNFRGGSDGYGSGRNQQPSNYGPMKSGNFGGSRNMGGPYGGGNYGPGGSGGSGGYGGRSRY
The settings on record: protein: recombinant; (stated for LCD only).

In the next data set the target is hnRNPA2 LCD (human, UniProt P22626 200-353). The settings on record: protein: recombinant; tags: 6xHis removed by TEV.
For another data set, the target named is T2, hnRNPA2 LCD deltaNAID2 (human, UniProt P22626 200-306, del307-353).
T2 sequence: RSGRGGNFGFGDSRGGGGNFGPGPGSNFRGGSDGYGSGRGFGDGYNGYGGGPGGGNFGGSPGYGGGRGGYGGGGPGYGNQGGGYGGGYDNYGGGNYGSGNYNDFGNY
The note with it: protein: recombinant; (stated for LCD only).

Sequence of hnRNPA2 LCD (P22626 200-353): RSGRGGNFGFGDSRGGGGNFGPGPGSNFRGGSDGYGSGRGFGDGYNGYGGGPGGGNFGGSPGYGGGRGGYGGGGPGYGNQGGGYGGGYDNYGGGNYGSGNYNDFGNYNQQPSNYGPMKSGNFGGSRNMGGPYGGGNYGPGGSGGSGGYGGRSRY

B1: U30 (labelled) (ssRNA)
RNA: UUUUUUUUUUUUUUUUUUUUUUUUUUUUUU
For the molecule B1, the Kd – broadly, a measure of binding affinity in units of concentration – is 41 ± 1.4 µM in the data set with hnRNPA2 LCD deltaNAID1, 0.72 ± 0.002 µM in the data set with hnRNPA2 LCD and 13 ± 3 µM in the data set with hnRNPA2 LCD deltaNAID2.
